Assay results as given in patent publication US20260069689A1 (Regeneron, published 2026).
Where a chain is given by its changes, count along the chain named.

B1: mAb14257 (antibody, V domains shown)
VH: EVQLVESGGGLVQPGGSLRLSCAASGFTVSRSYMNWVRQAPGKGLEWVSVVFTGGTTKHTDSVKGRFTISRDNSMNTLYLQMNSLRPEDTAVYYCARVAIVETTGAFDIWGQGTMVTVSS
VL: QSVLTQPPSVSGAPGQRVTISCTGTSSNIGADFDVHWYQQFPGTAPKLLIYGHTNRPSGIPDRFSGSKSGTSASLAITGLQAEDEADYYCQSYDSSLSGSVVFGGGTKLTVLG
B2: mAb14233 (antibody)
heavy: not shown
light: SYELTQPPSVSVSPGQTARITCSGDVLAKLYAYWYQHKPGQAPVLVIYKDSERPSGIPERFSGSSSGTTVTLTISGVQAEDEADYYCQSADSSGSLWVFGGGTKLTVLGQPKAAPSVTLFPPSSEELQANKATLVCLISDFYPGAVTVAWKADSSPVKAGVETTTPSKQSNNKYAASSYLSLTPEQWKSHRSYSCQVTHEGSTVEKTVAPTECS
B3: mAb14315 (antibody, V domains shown)
VH: QVQLVQSGAEVKKPGSSVKVSCKASGDTFSTYAINWVRQAPGQGLEWMGRFIHIFGTANYAQKFQGRVTITADESTSTAYMELRSLRSEDTAVYYCARDGVDYGDYRPDYWGQGTLVTVSS
VL: EIVLTQSPGTLSLSPGERATLSCRASQSVSSNYLAWYQQKPGQAPRLLIYGASSRATGIPERFSGSGSGTDFTLTISRLEPEDFAVYYCQQYGSSLYTFGQGTKLEIKR
B4: mAb14313 (antibody, V domains shown)
VH: EVQLVESGGGLVQPGRSLRLSCVASGFTFDDSAMHWVRQPPGKGLEWVSGISWNSGIIGYAESVKGRFIISRDNAKNSLFLHMRGLRPEDTAVYYCARDRLELSYYYYGMDVWGQGTTVTVSS
VL: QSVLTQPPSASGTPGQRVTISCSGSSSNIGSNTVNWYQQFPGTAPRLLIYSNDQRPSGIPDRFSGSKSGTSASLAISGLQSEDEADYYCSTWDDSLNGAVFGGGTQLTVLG
B5: mAb13458 (antibody, V domains shown)
VH: EVQLVESGGGLVQPGRSLRLSCAASGFTFDDYAMHWVRQAPGKGLEWVSGISWNSGSIGYADSVKGRFTISRDNAKNSLYLQMNSLRAEDTALYYCAKDIGITTPYWGQGTLVTVSS
VL: AIQMTQSPSSLSASVGDRVTITCRASQDIRNDLGWYQQKPGKAPKLLIYSASSLQTGVPSRFSGSGSGTDFTLTISSLHPEDFATYYCLQDYWYTWTFGQGTKVEIKR
B6: mAb13459 (antibody, V domains shown)
VH: B5 VH
VL: B5 VL with W93N, T95V
B7: mAb14259 (antibody)
heavy: not shown
light: DIVMTQSPLSLPVTPGEPASISCRSSQTLLHSNGYNYLDWYLQKPGQSPQLLIHLGSNRASGVPDRFSGSGSVTDFTLKISRVEAEDVGVYYCMQALQTPYTFGQGTKLEIKRTVAAPSVFIFPPSDEQLKSGTASVVCLLNNFYPREAKVQWKVDNALQSGNSQESVTEQDSKDSTYSLSSTLTLSKADYEKHKVYACEVTHQGLSSPVTKSFNRGEC
B8: mAb14291 (antibody)
heavy: not shown
light: B7 light with T28S, L38I, D39N, I53M, H54Y, V73G, F76S, V88A, A96T, L97R
B9: mAb14287 (antibody)
heavy: not shown
light: QSALTQPASVSGSPGQSITISCTGTSSDVGSYNLVSWYQQHPGKAPKLMIYEVSKRPSGVSNRFSGSKSGNTASLTISGLQAEDEADYYCSSYAGSRREVFGGGTKLTVLGQPKAAPSVTLFPPSSEELQANKATLVCLISDFYPGAVTVAWKADSSPVKAGVETTTPSKQSNNKYAASSYLSLTPEQWKSHRSYSCQVTHEGSTVEKTVAPTECS
B10: mAb14290 (antibody)
heavy: not shown
light: EIVLTQSPGTLSLSPGERATLSCRASQSVNNNYLAWYQQKPGQTPRLLIYGASSRATGIPDRFSGSGSGTDFTLTITRLEPEDFAVYHCQQYGRSPTTFGQGTRLEIKRTVAAPSVFIFPPSDEQLKSGTASVVCLLNNFYPREAKVQWKVDNALQSGNSQESVTEQDSKDSTYSLSSTLTLSKADYEKHKVYACEVTHQGLSSPVTKSFNRGEC
B11: mAb14288 (antibody)
heavy: not shown
light: QSVLTQPPSVSAAPGQKVTISCSGSSSNIGNNYVSWYQQLPGTAPKLLIYENNKRPSGIPDRFSGSKSGTSATLGITGLQTGDEADYYCGTWDSSLSAGQGVFGGGTKLTVLGQPKAAPSVTLFPPSSEELQANKATLVCLISDFYPGAVTVAWKADSSPVKAGVETTTPSKQSNNKYAASSYLSLTPEQWKSHRSYSCQVTHEGSTVEKTVAPTECS
B12: mAb14255 (antibody, V domains shown)
VH: QVQLQESGPGLVKPSETLSLTCTVSGGSISGYYWSWIRQPPGKGLDWIGYIYYRGNTNYNPSLKSRVTISVDTSNNQFSLKLSSVTAADTAVYYCARYGEGYGDASGYHFDYWGQGTLVTVSS
VL: QSALTQPASVSGSPGQSITISCTGTSSDVGSYNLVSWYQQHPGKAPKLMIYEDSKRPSGVANPFSGSKSGNTASLTISGLQAEDEADYYCSSYAGSSTWVFGGGTKLTVLG
B13: mAb14247 (antibody, V domains shown)
VH: QITLKESGPTLVKPTQTLTLTCTFSGFSLSTSAVGVGWIRQPPGKALEWLALIYWDDDKRYSPSLKSRLTITKDTSKNQLVLTMTNVDPVDTATYYCAHHTIQLIFDYWGQGTLVTVSS
VL: QSALTQPASVSGSPGQSITISCTATSSDVGNYNYVSWYQQHPGKAPKLMIYEVSNRPSGVSNRFSGSKSGNTASLTISGLQAEDEADYYCSSYTSSSTPLVFGGGTKLTVLG
B14: mAb14289 (antibody, V domains shown)
VH: QVQLVQSGPEVKKPGASVKVSCKASGYTFTSYAISWVRQAPGQGLEWMGWISAYNGNTNYAQKLQGRVTMTTDTFTSTAYMELRSLRSDDTAVYYCAVPADHITFDYWGQGTLVTVSS
VL: EIVLTQSPGTLSLSPGERATLSCRASQSVSSYLAWYQQKPGQAPRLLIHGASSRATGIPDRFSGSGSGTDFTLTISRLEPEDFAVYYCQQYGSSFLTFGGGTKVEIKR

Legend:
[1] = molecular target: SARS-COV-2 RBD extracellular domain expressed with a C-terminal myc-myc-hexahistidine tag (SARS-CoV-2); assay: SPR (Biacore), mAb captured by anti-human Fc, RBD-mmH in solution, 25 C
[2] = molecular target: human FcγR3a 176Val allotype receptor (human, UniProt P08637 17-254); assay: cell-based or functional assay

| Binder | Kd [1] [nM] | koff [1] [s⁻¹] | kon [1] [M⁻¹ s⁻¹] | t½ [1] [min] | EC50 (M), Jurkat/CD20/spike [2] [M] | Fold induction, Jurkat CD20 [2] [fold] | Fold induction, Jurkat/CD20/spike [2] [fold] |
| --- | --- | --- | --- | --- | --- | --- | --- |
| B1 | 2.8 | 0.00952 | 3.4e+06 | 1.2 | – | – | – |
| B2 | – | – | – | – | 2.8e-10 | 1.1 | 11 |
| B3 | 2.49 | 0.00102 | 407000 | 11.4 | – | – | – |
| B4 | 1.53 | 0.00217 | 1.42e+06 | 5.3 | – | – | – |
| B5 | 1.53 | 0.00139 | 909000 | 8.3 | – | – | – |
| B6 | 2.51 | 0.00174 | 693000 | 6.6 | – | – | – |
| B7 | – | – | – | – | 3.94e-10 | 1 | 8.7 |
| B8 | – | – | – | – | 3.02e-10 | 1.1 | 9.7 |
| B9 | – | – | – | – | 1.23e-09 | 1 | 6.2 |
| B10 | – | – | – | – | 3.42e-09 | 1 | 9.5 |
| B11 | – | – | – | – | 5.1e-10 | 1 | 6.7 |
| B12 | 2.84 | 0.00499 | 1.75e+06 | 2.3 | – | – | – |
| B13 | 1.94 | 0.00163 | 838000 | 7.1 | – | – | – |
| B14 | 1.36 | 0.00158 | 1.16e+06 | 7.3 | – | – | – |
